Patent publication US20110059095A1 (Regeneron, published 2011)
Changes are numbered by the printed parent chain. Where two headings read alike, the source gives them in different places. Where no end group is shown, it is not given here. The star is where a group is joined. Biotin = O=C1N[C@H]2[C@H](CS[C@H]2CCCCC(=O)*)N1

How the values were obtained:
[1] = molecular target: T1, Peptide A (human PAR-2), unbiotinylated (Human); test: SPR, antibody captured
T1 construct: also called Peptide A No Biotin
T1 peptide: GTNRSSKGRSLIGKVDGT
Protocol: (§1) Equilibrium dissociation constants (KD values) for antigen binding to selected purified PAR-2 antibodies were determined by surface kinetics using a real-time surface plasmon resonance biosensor assay. Antibody was captured on either a rabbit anti-mouse IgG polyclonal antibody (GE Healthcare, Piscataway, N.J.) surface or a goat anti-human IgG polyclonal antibody (Jackson Immuno Research Lab, West Grove, Pa.) surface created through direct amine chemical coupling to a BIACORE™ CM5 sensor chip to form a captured antibody surface. […] Antigen-antibody binding and dissociation were monitored in real time at room temperature. Kinetic analysis was performed to calculate KD and half-life of antigen/antibody complex dissociation (Table 10). For those antibodies where no T_{1/2} value is shown, steady state analysis was used to calculate the KD value. NB: no binding observed under current experimental conditions. ND: not determined.

[2] = molecular target: T1, Peptide A (human PAR-2), unbiotinylated; test: peptide ELISA titration
Protocol: (§2) Anti-PAR-2 antibodies were tested for their ability to bind to the PAR-2 peptides. Various PAR-2 Peptides (Table 3) were coated onto 96-well plates at a concentration of 2 μg/ml and incubated overnight followed by blocking in a suitable blocking agent for one hour. […] Purified anti-PAR-2 antibodies were added to the plate coated with PAR-2 peptides to a final concentration ranging from 0.2 to 2.0 μg/ml and incubated for one hour at room temperature. Detection of bound antibodies was determined with Horse-Radish Peroxidase (HRP) conjugated anti-mouse or human IgG (Jackson Immuno Research Lab, West Grove, Pa.) and developed by standard colorimetric response using tetramethylbenzidine (TMB) substrate. Absorbance was read at OD₄₅₀ for 0.1 second.
(§3) In another experiment, selected anti-PAR-2 antibodies cloned onto human IgG4 were tested for binding to unbiotinylated and biotinylated forms of PAR-2 peptides (Peptides A, E, F and G; as described above). […] Absorbance values at 450 nm were analyzed using a sigmoidal dose-response model in GraphPad Prism (GraphPad Software, Inc., La Jolla, Calif.) and EC₅₀ values were reported (Table 9). EC₅₀ values are defined as the antibody concentration required to achieve 50% maximal binding to PAR-2 peptide.

[3] = molecular target: T2, Peptide A (human PAR-2), N-terminal biotinylated (Human, N-terminal biotin via G4S linker); test: peptide ELISA titration
T2 construct: also called Peptide A N-Term
T2 peptide: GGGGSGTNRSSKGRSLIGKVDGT
Protocol: as §2, §3

[4] = molecular target: T3, Peptide A (human PAR-2), C-terminal biotinylated (Human, C-terminal biotin via G4S linker); test: peptide ELISA titration
T3 construct: also called Peptide A C-Term
Protocol: as §2, §3

[5] = molecular target: T4, Peptide E (mouse PAR-2), unbiotinylated (Mouse (Mus musculus)); test: peptide ELISA titration
T4 construct: also called Peptide E No Biotin
T4 peptide: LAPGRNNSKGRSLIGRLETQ
Protocol: as §2, §3

[6] = molecular target: T5, Peptide E (mouse PAR-2), N-terminal biotinylated (Mouse (Mus musculus), N-terminal biotin via G4S linker); test: peptide ELISA titration
T5 construct: also called Peptide E N-Term
T5 peptide: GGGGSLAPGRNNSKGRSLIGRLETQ
Protocol: as §2, §3

[7] = molecular target: T6, Peptide F (monkey PAR-2), N-terminal biotinylated (Monkey (Macaca mulatta), N-terminal biotin via G4S linker); test: peptide ELISA titration
T6 construct: also called Peptide F N-Term
T6 sequence (peptide, as listed by the source): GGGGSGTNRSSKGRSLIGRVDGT
Protocol: as §2, §3

[8] = molecular target: T7, Peptide G (rat PAR-2), unbiotinylated (Rat (Rattus norvegicus)); test: peptide ELISA titration
T7 construct: also called Peptide G No Biotin
T7 peptide: GPNSKGRSLIGRLDTP
Protocol: as §2, §3

[9] = molecular target: T8, Peptide G (rat PAR-2), N-terminal biotinylated (Rat (Rattus norvegicus), N-terminal biotin via G4S linker); test: peptide ELISA titration
T8 construct: also called Peptide G N-Term
T8 peptide: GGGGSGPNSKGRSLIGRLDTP
Protocol: as §2, §3

[10] = molecular target: T9, Peptide D (N-terminal domain of human PAR-2-mouse IgG2a) (Human); test: peptide ELISA
T9 chain: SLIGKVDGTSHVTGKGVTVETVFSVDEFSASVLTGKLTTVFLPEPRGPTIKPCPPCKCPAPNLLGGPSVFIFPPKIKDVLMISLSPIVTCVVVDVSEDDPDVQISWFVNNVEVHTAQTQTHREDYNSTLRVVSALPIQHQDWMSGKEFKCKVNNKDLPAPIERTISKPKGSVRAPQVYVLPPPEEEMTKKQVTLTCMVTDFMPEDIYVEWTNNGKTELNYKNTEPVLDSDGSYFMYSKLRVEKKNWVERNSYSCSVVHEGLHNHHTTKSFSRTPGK

[11] = molecular target: T6, Peptide F (monkey PAR-2), N-terminal …; test: SPR, antibody captured
Protocol: as §1

[12] = molecular target: T10, full length human PAR-2 (human, UniProt P55085 26-397); test: cell-based or functional assay
T10 sequence (P55085 26-397 G138A limits assumed): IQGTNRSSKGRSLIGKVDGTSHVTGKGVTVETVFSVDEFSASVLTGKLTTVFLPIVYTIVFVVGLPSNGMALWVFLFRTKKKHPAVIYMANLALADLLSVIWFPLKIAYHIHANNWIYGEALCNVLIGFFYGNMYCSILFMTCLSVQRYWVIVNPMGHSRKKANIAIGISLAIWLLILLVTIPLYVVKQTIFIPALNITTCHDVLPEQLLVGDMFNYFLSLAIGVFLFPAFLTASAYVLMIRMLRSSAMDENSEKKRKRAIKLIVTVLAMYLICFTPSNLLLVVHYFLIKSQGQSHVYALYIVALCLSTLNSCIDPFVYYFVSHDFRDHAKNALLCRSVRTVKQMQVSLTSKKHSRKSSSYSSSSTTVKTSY

[13] = molecular target: T10, full length human PAR-2; test: cell-based or functional assay; remark: listed apart in the source
[14] = molecular target: T1, Peptide A (human PAR-2), unbiotinylated; test: peptide ELISA
Protocol: as §2

[15] = molecular target: T2, Peptide A (human PAR-2), N-terminal …; test: peptide ELISA
Protocol: as §2

[16] = molecular target: T3, Peptide A (human PAR-2), C-terminal …; test: peptide ELISA
Protocol: as §2

[17] = molecular target: T11, Peptide B (human PAR-2), unbiotinylated (Human); test: peptide ELISA
T11 construct: also called Peptide B No Biotin
T11 peptide: SLIGKVDGTSHVTG
Protocol: as §2

[18] = molecular target: T12, Peptide B (human PAR-2), N-terminal biotinylated (Human); test: peptide ELISA
T12 construct: also called Peptide B N-Term
T12 peptide: Biotin-GGGGSSLIGKVDGTSHVTG
Protocol: as §2

[19] = molecular target: T13, Peptide B (human PAR-2), C-terminal biotinylated (Human, not fully specified); test: peptide ELISA
T13 construct: also called Peptide B C-Term
T13 peptide: SLIGKVDGTSHVTGGGGGS-biotin
Protocol: as §2

[20] = molecular target: T14, Peptide C (human PAR-2), N-terminal biotinylated (Human); test: peptide ELISA
T14 construct: also called Peptide C N-Term
T14 peptide: Biotin-GGGGSSLIGKV
Protocol: as §2

[21] = molecular target: T15, Peptide C (human PAR-2), C-terminal biotinylated (Human); test: peptide ELISA
T15 construct: also called Peptide C C-Term
T15 peptide: SLIGKVGGGGS-biotin
Protocol: as §2

[22] = molecular target: T11, Peptide B (human PAR-2), unbiotinylated; test: SPR, antibody captured
Protocol: as §1

[23] = molecular target: T10, full length human PAR-2; test: cell-based or functional assay; remark: listed apart in the source
[24] = molecular target: T3, Peptide A (human PAR-2), C-terminal …; test: SPR, peptide immobilized
Protocol: (§4) In another series of experiments, equilibrium dissociation constants (KD values) for purified antibody binding to selected biotinylated and unbiotinylated forms of PAR-2 peptides were determined by surface kinetics using a real-time surface plasmon resonance biosensor assay. Neutravidin (Pierce, Rockford, Ill.) was covalently coupled to the surface of a Biacore™ C1 chip or CM5 chip using amine coupling chemistry. Biotinylated (N-Term or C-Term) PAR-2 peptides (Peptides A and B) were immobilized on the surface via the high affinity binding interaction between biotin and the amine coupled Neutravidin.
(§5) In a first experiment using this format, varying concentrations (ranging from 5 to 100 μg/ml) of purified antibody were injected at a rate of 50 μl/min over a surface coated with immobilized peptide at low-density (<1RU) for 300 seconds. Antibody-peptide binding and dissociation was monitored in real time 25° C.

[25] = molecular target: T13, Peptide B (human PAR-2), C-terminal …; test: SPR, peptide immobilized
Protocol: as §4, §5

[26] = molecular target: T10, full length human PAR-2; test: cell ELISA, 10 ug/ml antibody
Excerpt: HEK293 cells were transfected with an NF-κB-luciferase-IRES-eGFP reporter plasmid. […] A clonal cell line, named D9, having low background levels of luciferase activity and high levels of eGFP when induced with IL-1β was made by a series of successive sorts of cell populations using flow cytometry. The 293/D9 cell line was then separately transfected with human PAR-2 or mouse PAR-2 to create the stable cell lines 293/D9/h PAR-2rec and 293/D9/m PAR-2rec, respectively.
Binding of anti-PAR-2 antibodies to 293/D9/hPAR-2rec cells was determined by ELISA. 293/D9 and 293/D9/hPAR-2rec cells were plated at a density of 5×10⁴ cells/well in media and incubated overnight at 37° C. and 5% CO₂. Purified antibody was added to the cells to a final concentration of 10 μg/ml and incubated at room temperature for one hour. Cells were then fixed and washed before detection of bound antibodies with HRP conjugated anti-mouse IgG and developed by standard colorimetric response using TMB substrate. Absorbance was read at OD₄₅₀ for 0.1 second.

B1: H4H578P (antibody, human IgG4, V domains shown)
VH: QVQLVESGGGVVQPGMSLRLSCAASGFTFRRYGMHWVRQAPGKGLEWVAVIWYDGSNKYYVDSVKGRFTISRDNSKNTLYLQMNSLRAEDTAVYYCASEITVGDWFDPWGQGTLVTVSS
VL: AIQMTQSPSSLSASVGDRVTITCRASQGIRNDLGWYQQKPGKAPKLLIYAASSLHSGVPSRFSGSGSGTDFTLTISSLQPEDFATYYCLQDFNYPLTFGGGTKVEIK
notes: also called H1H578P variable regions
- Kd [1]: 245 nM
- T1/2 [1]: 0.17 min
- EC50 [2]: 0.034 nM
- EC50 [3]: 0.062 nM
- EC50 [4]: 0.04 nM
- EC50 [5]: 2.78 nM
- EC50 [6]: 0.09 nM
- EC50 [7]: 0.036 nM
- EC50 [8]: 0.046 nM
- EC50 [9]: 0.081 nM

B2: H4H591N (antibody, human IgG4, V domains shown)
VH: EVQLLESGGGLVQPGGSLRLSCATSGFTFSRYTMTWVRQAPGKGLFWVSGIGGSGGRAYYADSVKGRFTLSRDNSKNTLYLQMNSLRAEDTAVYYCAKEGDSGYDLDYWGRGTLVTVSS
VL: DIQMTQYPSSLSASVGDRVTITCRARQGISNYLAWLQQKPGKAPKSLIYAASSLQRGVPSKFSGSGSGTDFTLTISSLQPEDSATYYCQQYKISPLTFGGGTKVEIK
notes: also called H2M591N variable regions
- binding result [10]: binds
- Kd [11]: 8.54 nM
- T1/2 [11]: 21 min
- IC50, NF-kB-luciferase, 20 nM Trypsin [12]: 204 nM
- IC50, NF-kB-luciferase, 10 nM Human Trypsin 1 [13]: 105 nM
- IC50, NF-kB-luciferase, 200 nM Factor Xa [13]: 74.6 nM
- IC50, NF-kB-luciferase, 750 nM Lung Tryptase [13]: 62.9 nM
- EC50 [2]: 0.01 nM
- EC50 [3]: 0.022 nM
- EC50 [4]: 0.016 nM
- EC50 [7]: 0.011 nM

B3: H4H618N (antibody, human IgG4, V domains shown)
VH: EVQLLESGGGLVQPGGSLRLSCAASGFTFRSYTMTWVRQAPGKGLDWVSGITDSGAGTYYGDSVKGRFTISRDNSKNTLYLQMNSLRAEDTAVYYCVKEGDSGYDLDYWGQGTLVTVSS
VL: B2 VL with Y7S, R26S, N31T, A51T, R56S, G66R, S83F, I93S
notes: also called H2M618N variable regions
- binding result [10]: binds
- Kd [11]: 13.8 nM
- T1/2 [11]: 5 min
- IC50, NF-kB-luciferase, 20 nM Trypsin [12]: 50.2 nM
- IC50, NF-kB-luciferase, 10 nM Human Trypsin 1 [13]: 92.2 nM
- IC50, NF-kB-luciferase, 200 nM Factor Xa [13]: 47.2 nM
- IC50, NF-kB-luciferase, 750 nM Lung Tryptase [13]: 8.5 nM
- EC50 [2]: 0.009 nM
- EC50 [3]: 0.021 nM
- EC50 [4]: 0.016 nM
- EC50 [7]: 0.011 nM

B4: H2M618N (antibody, V domains shown)
VH: B3 VH
VL: B2 VL with Y7S, R26S, N31T, A51T, R56S, G66R, S83F, I93S
notes: chimeric: human variable, mouse constant domains
- OD450 [14]: 1 to 4 od
- OD450 [15]: 1 to 4 od
- OD450 [16]: 1 to 4 od
- OD450 [17]: 1 to 4 od
- OD450 [18]: 1 to 4 od
- OD450 [19]: 1 to 4 od
- OD450 [20]: 0 to 0.09 od
- OD450 [21]: 0 to 0.09 od
- Kd [1]: 9.62 nM
- T1/2 [1]: 6.7 min
- Kd [22]: 126 nM
- T1/2 [22]: 3.5 min
- IC50, NF-kB-luciferase, 10 nM Human Trypsin 1 [23]: 154 nM
- IC50, NF-kB-luciferase, 10 nM Trypsin [23]: 12.4 nM
- IC50, NF-kB-luciferase, 20 nM Trypsin [23]: 70 nM
- IC50, NF-kB-luciferase, 75 nM Trypsin [23]: 7.8 nM
- IC50, NF-kB-luciferase, 200 nM Factor Xa [23]: 54.2 nM
- IC50, NF-kB-luciferase, 250 nM Trypsin [23]: 6.6 nM
- IC50, NF-kB-luciferase, 750 nM Lung Tryptase [23]: 7 nM
- Kd [24]: 1.8 nM
- T1/2 [24]: 79 min
- Kd [25]: 2.32 nM
- T1/2 [25]: 60 min
- A450 ratio (293/D9/hPAR-2rec to 293/D9 cells) [26]: 2.44
